Data as given in article PMC6135765, “Redox control and autoxidation of class 1, 2 and 3 phytoglobins from Arabidopsis thaliana” (Scientific Reports, 2018).

Target: the molecule itself
Assay: SEC; analytical size exclusion chromatography of the purified proteins, before and after His8-MBP removal; apparent native size in solution

B1: His8-MBP:AtHb1 (Arabidopsis thaliana class 1 non-symbiotic hemoglobin / phytoglobin, before tag cleavage) (natural protein, UniProt O24520 1-160, looked up)
chain: MESEGKIVFTEEQEALVVKSWSVMKKNSAELGLKLFIKIFEIAPTTKKMFSFLRDSPIPAEQNPKLKPHAMSVFVMCCESAVQLRKTGKVTVRETTLKRLGASHSKYGVVDEHFEVAKYALLETIKEAVPEMWSPEMKVAWGQAYDHLVAAIKAEMNLSN
notes: AtHb1, class 1 non-symbiotic hemoglobin of Arabidopsis thaliana; Heme protein; Expressed from pVP16 (Gateway) with an N-terminal 8xHis:MBP double tag and a TEV site; also called His8-MBP-tagged AtHb1; 8xHis:MBP:Hb1; not shown: His8, N-terminal, kept; MBP, N-terminal, kept
- stoichiometry N: 2

B2: AtHb1 (Arabidopsis thaliana class 1 non-symbiotic hemoglobin / phytoglobin, His8-MBP removed) (natural protein, UniProt O24520 1-160, looked up)
chain: MESEGKIVFTEEQEALVVKSWSVMKKNSAELGLKLFIKIFEIAPTTKKMFSFLRDSPIPAEQNPKLKPHAMSVFVMCCESAVQLRKTGKVTVRETTLKRLGASHSKYGVVDEHFEVAKYALLETIKEAVPEMWSPEMKVAWGQAYDHLVAAIKAEMNLSN
notes: AtHb1, class 1 non-symbiotic hemoglobin of Arabidopsis thaliana; Heme protein; The gene primer encodes ENLYFQ directly before the first Met, the adapter primer ENLYFQG before Met; also called class 1 nsHb; source: TEV cleavage, HisTrap removal of the tag, size exclusion and/or anion exchange; not shown: His8, N-terminal, cleaved; MBP, N-terminal, cleaved
- stoichiometry N: 2

B3: His8-MBP:AtHb3 (Arabidopsis thaliana class 3 non-symbiotic, truncated hemoglobin / phytoglobin, before tag cleavage) (natural protein, UniProt Q67XG0 1-175, looked up)
chain: MQSLQDKASVLSGVDQAEAFAIDESNLFDKLGLQTFINLSTNFYTRVYDDEEEWFQSIFSNSNKEDAIQNQYEFFVQRMGGPPLYSQRKGHPALIGRHRPFPVTHQAAERWLEHMQNALDDSVDIDQDSKIKMMKFFRHTAFFLVAGNELKNQNEKPKHKPQCACKHAANKPAEE
notes: AtHb3, class 3 non-symbiotic (truncated, 2-on-2) hemoglobin of Arabidopsis thaliana; Heme protein; Expressed from pVP16 (Gateway) with an N-terminal 8xHis:MBP double tag and a TEV site; carboxy form oxidised to the ferric form on the column; also called His8-MBP-tagged AtHb3; 8xHis:MBP:Hb3; not shown: His8, N-terminal, kept; MBP, N-terminal, kept
- stoichiometry N: 2

B4: AtHb3 (Arabidopsis thaliana class 3 non-symbiotic, truncated hemoglobin / phytoglobin, His8-MBP removed) (natural protein, UniProt Q67XG0 1-175, looked up)
chain: MQSLQDKASVLSGVDQAEAFAIDESNLFDKLGLQTFINLSTNFYTRVYDDEEEWFQSIFSNSNKEDAIQNQYEFFVQRMGGPPLYSQRKGHPALIGRHRPFPVTHQAAERWLEHMQNALDDSVDIDQDSKIKMMKFFRHTAFFLVAGNELKNQNEKPKHKPQCACKHAANKPAEE
notes: AtHb3, class 3 non-symbiotic (truncated, 2-on-2) hemoglobin of Arabidopsis thaliana; Heme protein; The gene primer encodes ENLYFQ directly before the first Met, the adapter primer ENLYFQG before Met; also called class 3 nsHb; source: TEV cleavage, HisTrap removal of the tag, anion exchange; not shown: His8, N-terminal, cleaved; MBP, N-terminal, cleaved
- stoichiometry N: 2
